Assay results reported in patent US20260210939A1, “MODIFIED OLFACTORY RECEPTORS” (GIVAUDAN SA, priority 2022, published 2026).
Read-outs that look alike come from different tables or passages of the source.

Experiments:
[1] = target: T1, OR52A5 (Homo sapiens, UniProt Q9H2C5); assay type: cell-based
T1 construct: Improved functional expression of modified OR-genes containing the truncated, optimized C-terminus; expressed in transfected cells; host or cells: HEK293T stably expressing human RTP1S(V227I) and RTP2(L220R)
T1 sequence (Q9H2C5 with tags, fused parts or gaps): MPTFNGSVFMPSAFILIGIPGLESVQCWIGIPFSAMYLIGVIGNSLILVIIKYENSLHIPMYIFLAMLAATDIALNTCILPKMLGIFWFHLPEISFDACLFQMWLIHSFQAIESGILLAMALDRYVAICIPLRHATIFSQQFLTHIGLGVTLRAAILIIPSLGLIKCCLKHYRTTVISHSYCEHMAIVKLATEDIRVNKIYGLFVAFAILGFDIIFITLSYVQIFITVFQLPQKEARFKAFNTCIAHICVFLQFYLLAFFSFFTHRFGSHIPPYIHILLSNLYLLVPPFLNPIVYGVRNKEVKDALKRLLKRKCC
Protocol: Further variants of the improved C-terminal domain sequence […] (SEQ ID NO: 86) and falling within the general sequence RN[KR][EDQ][VMIL][KR]xA[LIV][KRH][KR][LI][LIF][KRG][KR][KR] (SEQ ID NO: 1) with further amino acids at the C-terminal end (CC) were tested on the class I receptor OR52A5 activated by 4-ethyloctanoic acid. […] This activation is further improved by either replacing amino acid position 4-6 with the sequence QIR or by adding the terminal sequence RRR.

[2] = target: T2, OR5A2 (Homo sapiens, UniProt Q8NGI9); experiment: CRE-luciferase assay, HEK293T cells expressing OR5A2 (wild-type / modified C-terminus); assay type: cell-based; conditions: for fold-induction of luciferase: OR5A2 variant
T2 construct: Improved functional expression of modified OR-genes containing the truncated, optimized C-terminus; expressed in transfected cells; host or cells: HEK293T with stably integrated human RTP1S(V227I) and RTP2(L220R)
T2 sequence (Q8NGI9 with tags, fused parts or gaps): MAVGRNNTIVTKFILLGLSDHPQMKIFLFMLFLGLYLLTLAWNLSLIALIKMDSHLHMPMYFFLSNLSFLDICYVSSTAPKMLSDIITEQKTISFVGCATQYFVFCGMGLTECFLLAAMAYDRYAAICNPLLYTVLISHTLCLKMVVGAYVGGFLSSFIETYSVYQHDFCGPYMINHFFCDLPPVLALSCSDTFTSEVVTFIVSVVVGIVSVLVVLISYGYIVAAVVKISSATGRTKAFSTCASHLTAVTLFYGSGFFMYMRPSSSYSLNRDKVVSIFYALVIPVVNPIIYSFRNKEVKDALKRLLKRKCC

[3] = target: T3, OR7D4 (Homo sapiens, UniProt Q8NG98, D296E/E302K/G299D); experiment: CRE-luciferase assay, HEK cells expressing OR7D4 (wild-type / modified C-terminus); assay type: cell-based; conditions: OR7D4 variant, Androstenone
T3 construct: Improved functional expression of modified OR-genes containing the truncated, optimized C-terminus; expressed in transfected cells
T3 sequence (Q8NG98 with tags, fused parts or gaps D296E/G299D/E302K): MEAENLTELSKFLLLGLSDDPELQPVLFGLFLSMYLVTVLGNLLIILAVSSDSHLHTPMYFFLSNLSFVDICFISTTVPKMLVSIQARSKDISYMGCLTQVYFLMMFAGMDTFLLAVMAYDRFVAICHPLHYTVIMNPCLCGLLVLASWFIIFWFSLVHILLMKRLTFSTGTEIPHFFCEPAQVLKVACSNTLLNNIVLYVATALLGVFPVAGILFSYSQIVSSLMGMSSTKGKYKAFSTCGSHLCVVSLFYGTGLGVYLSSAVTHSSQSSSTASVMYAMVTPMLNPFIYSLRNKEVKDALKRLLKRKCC
Description: Random permutations of the general C-terminal sequence RN[KR][EDQ][VMIL][KR]KA[LIV][KRH][KR][LI][LIF][KRG][KR][KR]CC (SEQ ID NO: 822) linked to OR7D4 were generated based on degenerate oligonucleotides for the C-terminal domain. For this experiment, the MfeI/XhoI fragment from pcDNA3.1(+)-mmLucy-FLAG-rho-OR7D4 containing the CMV promoter and the OR coding sequence was used to replace the EcoRI/SalI fragment of pRDVCCB-CMV-dCas9-VPH-2A-Blast (Cellecta, Inc., Mountain View, USA). Complementary degenerate oligonucleotides were then used to replace the coding region of the C-terminal domain of […] (between Bsu36I and NotI). Random clones were selected, sequenced and tested for a correct open reading frame. A total of 55 clones were obtained with the correct open reading frame of […] and a permutation of the general sequence RN[KR][EDQ][VMIL][KR]KA[LIV][KRH][KR][LI][LIF][KRG][KR][KR]CC (SEQ ID NO: 822) as the C-terminal domain. All the different clones were compared to the wild-type sequence by the functional assay in HEK cells with the ligand Androstenone tested in a dose-response test.

[4] = target: T4, OR7C1 (Homo sapiens, UniProt O76099, D296E/G302K/M297V/R299D/T295K/V126I); experiment: CRE-luciferase assay, HEK293T cells expressing OR7C1 (wild-type / modified C-terminus); assay type: cell-based; conditions: for % of the activation by the optimized sequence RNKEVKDALKRLLKRKCC: OR7C1 variant, 1 μM Ambermax
T4 construct: Improved functional expression of modified OR-genes containing the truncated, optimized C-terminus; expressed in transfected cells; host or cells: HEK293T stably expressing human RTP1S(V227I) and RTP2(L220R)
T4 sequence (O76099 with tags, fused parts or gaps V126I/T295K/D296E/M297V/R299D/G302K): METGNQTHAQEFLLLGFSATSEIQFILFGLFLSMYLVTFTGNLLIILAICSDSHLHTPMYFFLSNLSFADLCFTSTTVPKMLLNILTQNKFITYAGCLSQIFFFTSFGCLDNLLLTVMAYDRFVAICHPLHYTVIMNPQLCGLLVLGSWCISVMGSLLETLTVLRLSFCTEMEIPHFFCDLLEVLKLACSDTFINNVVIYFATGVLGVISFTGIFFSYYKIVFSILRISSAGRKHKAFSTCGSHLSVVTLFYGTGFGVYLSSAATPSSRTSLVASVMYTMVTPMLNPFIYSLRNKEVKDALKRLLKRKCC
Description: To test for possible variants of the sequence […]CC (SEQ ID NO: 86) leading to similar improved functional expression, different point mutations were introduced into the first 16 amino acids of this sequence (corresponding to […], SEQ ID NO: 10) and the variants were fused after the TM7 with OR7C1. […] The test concentrations were selected to fall into the range of partial activity of the wild-type sequence.

[5] = target: T5, OR5B12 (Homo sapiens, UniProt Q96R08, C141R); experiment: CRE-luciferase assay, HEK293T cells expressing OR5B12 (wild-type / modified C-terminus); assay type: cell-based; conditions: OR5B12 variant
T5 construct: Improved functional expression of modified OR-genes containing the truncated, optimized C-terminus; expressed in transfected cells; host or cells: HEK293T stably expressing human RTP1S(V227I) and RTP2(L220R)
T5 sequence (Q96R08 with tags, fused parts or gaps C141R): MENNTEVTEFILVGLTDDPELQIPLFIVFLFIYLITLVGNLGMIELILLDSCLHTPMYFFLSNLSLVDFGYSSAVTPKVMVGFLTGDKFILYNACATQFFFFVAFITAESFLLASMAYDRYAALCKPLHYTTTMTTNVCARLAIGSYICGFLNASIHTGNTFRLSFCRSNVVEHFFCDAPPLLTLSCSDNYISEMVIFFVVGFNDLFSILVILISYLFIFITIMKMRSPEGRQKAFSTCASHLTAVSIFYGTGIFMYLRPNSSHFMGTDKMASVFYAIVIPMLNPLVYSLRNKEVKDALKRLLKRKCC

[6] = target: T6, OR2T4 (Homo sapiens, UniProt Q8NH00, D328E/G331D/M330K); conditions: OR2T4 variant
T6 sequence (Q8NH00 with tags, fused parts or gaps D328E/M330K/G331D): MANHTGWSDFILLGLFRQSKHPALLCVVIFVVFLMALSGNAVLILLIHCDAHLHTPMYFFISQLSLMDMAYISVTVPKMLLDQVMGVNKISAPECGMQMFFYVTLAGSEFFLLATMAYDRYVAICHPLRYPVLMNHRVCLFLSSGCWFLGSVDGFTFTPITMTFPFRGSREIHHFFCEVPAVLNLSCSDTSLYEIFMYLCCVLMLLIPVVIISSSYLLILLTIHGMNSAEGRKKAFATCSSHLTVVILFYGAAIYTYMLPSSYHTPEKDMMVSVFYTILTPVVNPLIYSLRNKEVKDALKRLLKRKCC

[7] = 4 μM 2-methyl-3-tetrahydrofuranethiol
[8] = 8 μM 2-methyl-3-tetrahydrofuranethiol

With CCCCC(CC)CCC(=O)O (stereo not shown) [4-ethyloctanoic acid, reference compound] the Comments on efficacy [1] was 2.5-fold lower and the Fold-improvement threshold ([1]; changed C-term. vs wild-type) was over 10.
For CC1COCc2cc3c(cc21)C(C)(C)C(C)C3(C)C (stereo not shown) [Galaxolide, reference compound], the Comments on efficacy [2] was “No induction”, the “Detection threshold; concentration for 2-fold induction” value ([2]; changed C-term. SEQ ID NO: 86) was 0.0016 µM and the Fold-improvement potency ([2]; changed C-term. vs wild-type) was over 300. The Fold-improvement threshold ([2]; changed C-term. vs wild-type) was over 20000, the “concentration at which activation occurs” value ([2]; modified OR5A2, SEQ ID NO: 86) was under 0.01 µM and the “Detection threshold; concentration for 2-fold induction” value ([2]; wild-type) was “(>>31) μM”.
In the case of CCOc1cc(C=O)ccc1O [ethyl vanillin, reference compound], the “response of the modified receptor” value ([2]; modified OR5A2, SEQ ID NO: 86) is reported as “no response”.
In the case of “SEQ ID NO: 86: optimized C-terminal sequence fused after TM7 of the OR of the assay (RNKEVKDALKRLLKRKCC; source 1..18: note = C-terminal domain sequence)”, the “EC2 (concentration for 2-fold luciferase induction)” value [3] is reported as 0.007 µM, the “EC2 Fold-improvement vs. wild-type” value [3] is reported as 249.44 and the luciferase induction ([4]; 1 μM of Ambermax) is reported as “around 10 fold”. For the same molecule, the “% of the activation by the optimized sequence RNKEVKDALKRLLKRKCC” value (“% of the activation” for short) [4] was 100%, the fold-induction of luciferase ([2]; muscone 0.01 μM) was 1.07 and the fold-induction of luciferase ([2]; muscone 0.03 μM) was 1.48. It also gave a fold-induction of luciferase ([2]; muscone 0.10 μM) of 3.57, a fold-induction of luciferase ([2]; muscone 0.32 μM) of 10.02 and a fold-induction of luciferase ([2]; muscone 1.00 μM) of 21.98. For the same molecule, the fold-induction of luciferase ([2]; muscone 3.16 μM) was 31.84, the fold-induction of luciferase ([2]; muscone 10.00 μM) was 33.98 and the “% of the activation” value ([5]; 31 μM Hedione HC) was 100%. For the same molecule, the “% of the activation” value ([5]; 62.5 μM Hedione HC) was 100%, the “fold induction of luciferase by 4-ethyloctanoic acid” value (“fold induction of luciferase” below) ([1]; 1 µM) was 2.21 and the “fold induction of luciferase” value ([1]; 10 µM) was 3.53. The “fold induction of luciferase” value ([1]; 31 µM) was 7.64, the “% of the activation” value [6, 7] was 100% and the “% of the activation” value [6, 8] was 100%. For the same molecule, the “% of the activation” value ([6]; 10 μM Cyclopentanethiol, 30 μM copper) was 100% and the “% of the activation” value ([6]; 31 μM Cyclopentanethiol, 30 μM copper) was 100%.
With “SEQ ID NO: 117 (RNKEVKKAIKRLFKRKCC; source 1..18: note = C-terminal domain sequence)” the “% of the activation” value [4] was 310.7%, the fold-induction of luciferase ([2]; muscone 0.01 μM) was 0.96 and the fold-induction of luciferase ([2]; muscone 0.03 μM) was 1.39. It also gave a fold-induction of luciferase ([2]; muscone 0.10 μM) of 3.49, a fold-induction of luciferase ([2]; muscone 0.32 μM) of 9.33 and a fold-induction of luciferase ([2]; muscone 1.00 μM) of 19.44. For the same molecule, the fold-induction of luciferase ([2]; muscone 3.16 μM) was 27.31, the fold-induction of luciferase ([2]; muscone 10.00 μM) was 30.34 and the “% of the activation” value ([5]; 31 μM Hedione HC) was 435.4%. The “% of the activation” value ([5]; 62.5 μM Hedione HC) was 282.5%, the “% of the activation” value [6, 7] was 96.2% and the “% of the activation” value [6, 8] was 88.2%.
With “SEQ ID NO: 156 (RNKEVKDALKRLLKRKCCRRR; source 1..21: note = C-terminal domain sequence)” the “% of the activation” value ([5]; 31 μM Hedione HC) was 250.7%, the “% of the activation” value ([5]; 62.5 μM Hedione HC) was 233.4% and the “fold induction of luciferase” value ([1]; 1 µM) was 9.39. For the same molecule, the “fold induction of luciferase” value ([1]; 10 µM) was 14.90 and the “fold induction of luciferase” value ([1]; 31 µM) was 22.00.
For “SEQ ID NO: 740 (RNKQIRDALKRLLKRKCC; source 1..18: note = C-terminal domain sequence)”, the “fold induction of luciferase” value ([1]; 1 µM) was 10.09, the “fold induction of luciferase” value ([1]; 10 µM) was 12.30 and the “fold induction of luciferase” value ([1]; 31 µM) was 19.31.
